In paper PMC4038756 (Theranostics, 2014):

What was measured:
purified αvβ6 = purified αvβ6 (Homo sapiens, UniProt P06756+P18564); experiment: Binding assay on purified integrins; settings: purified αvβ6, up to 1 µM
[1] = Small animal PET/CT imaging, H2009 tumor bearing mice; type: in vivo, NOD/SCID mice; settings: NOD/SCID, mouse, iv, total radioactivity
[2] = test system: H2009 (αvβ6^+) xenografts; experiment: as above; type: in vivo, NOD/SCID mice; settings: for Tumor uptake: quantitative PET, mean ± s.d.; for Tumor uptake / Tumor/Lung: n = 3; for Tumor/Lung: ratio of PET uptakes; for tumor uptake increase as compared to 64Cu-M10: H2009 tumor, all three time points (1 h, 4 h, 24 h p.i.)
[3] = Small animal PET/CT imaging, H460 tumor bearing mice; type: in vivo, NOD/SCID mice; settings: NOD/SCID, mouse, iv, total radioactivity
H460 (αvβ6^-) xenografts = experiment: as above; type: in vivo, NOD/SCID mice; settings: H460 tumor bearing mice, quantitative PET, mean ± s.d., n = 3
[4] = biological target: αvβ6 integrin-positive H2009 human NSCLC cells (Homo sapiens, UniProt P06756+P18564); experiment: Peptide competition assay: inhibition of H2009.1 peptide phage binding to cells
Chain of αvβ6 integrin-positive H2009 human NSCLC cells (P18564 22-788): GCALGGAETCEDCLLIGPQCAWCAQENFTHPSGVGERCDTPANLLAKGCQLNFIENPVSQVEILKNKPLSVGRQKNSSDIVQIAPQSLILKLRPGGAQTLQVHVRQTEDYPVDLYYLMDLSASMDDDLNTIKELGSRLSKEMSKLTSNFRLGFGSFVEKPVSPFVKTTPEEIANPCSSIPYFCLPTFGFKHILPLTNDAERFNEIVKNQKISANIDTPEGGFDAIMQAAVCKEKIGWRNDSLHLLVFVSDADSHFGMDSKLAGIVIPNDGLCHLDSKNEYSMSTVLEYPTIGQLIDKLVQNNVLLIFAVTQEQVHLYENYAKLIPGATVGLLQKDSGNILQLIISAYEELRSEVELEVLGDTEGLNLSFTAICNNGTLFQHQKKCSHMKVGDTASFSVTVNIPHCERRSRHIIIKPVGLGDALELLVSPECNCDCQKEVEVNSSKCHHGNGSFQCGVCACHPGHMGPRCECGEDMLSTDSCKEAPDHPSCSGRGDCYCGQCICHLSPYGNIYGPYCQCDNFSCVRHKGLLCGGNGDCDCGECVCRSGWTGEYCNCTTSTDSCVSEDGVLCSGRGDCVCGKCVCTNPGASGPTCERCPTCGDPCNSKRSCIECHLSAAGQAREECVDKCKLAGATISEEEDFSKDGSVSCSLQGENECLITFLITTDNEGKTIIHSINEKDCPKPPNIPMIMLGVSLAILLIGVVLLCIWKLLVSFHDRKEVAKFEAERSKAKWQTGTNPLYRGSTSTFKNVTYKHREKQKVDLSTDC
Chain of αvβ6 integrin-positive H2009 human NSCLC cells (P06756 891-1048): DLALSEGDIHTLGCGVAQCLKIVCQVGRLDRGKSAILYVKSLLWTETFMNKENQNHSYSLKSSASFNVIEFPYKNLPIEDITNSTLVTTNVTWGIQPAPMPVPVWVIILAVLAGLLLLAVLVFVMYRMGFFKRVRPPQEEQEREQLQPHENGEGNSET
Chain of αvβ6 integrin-positive H2009 human NSCLC cells (P06756 31-889): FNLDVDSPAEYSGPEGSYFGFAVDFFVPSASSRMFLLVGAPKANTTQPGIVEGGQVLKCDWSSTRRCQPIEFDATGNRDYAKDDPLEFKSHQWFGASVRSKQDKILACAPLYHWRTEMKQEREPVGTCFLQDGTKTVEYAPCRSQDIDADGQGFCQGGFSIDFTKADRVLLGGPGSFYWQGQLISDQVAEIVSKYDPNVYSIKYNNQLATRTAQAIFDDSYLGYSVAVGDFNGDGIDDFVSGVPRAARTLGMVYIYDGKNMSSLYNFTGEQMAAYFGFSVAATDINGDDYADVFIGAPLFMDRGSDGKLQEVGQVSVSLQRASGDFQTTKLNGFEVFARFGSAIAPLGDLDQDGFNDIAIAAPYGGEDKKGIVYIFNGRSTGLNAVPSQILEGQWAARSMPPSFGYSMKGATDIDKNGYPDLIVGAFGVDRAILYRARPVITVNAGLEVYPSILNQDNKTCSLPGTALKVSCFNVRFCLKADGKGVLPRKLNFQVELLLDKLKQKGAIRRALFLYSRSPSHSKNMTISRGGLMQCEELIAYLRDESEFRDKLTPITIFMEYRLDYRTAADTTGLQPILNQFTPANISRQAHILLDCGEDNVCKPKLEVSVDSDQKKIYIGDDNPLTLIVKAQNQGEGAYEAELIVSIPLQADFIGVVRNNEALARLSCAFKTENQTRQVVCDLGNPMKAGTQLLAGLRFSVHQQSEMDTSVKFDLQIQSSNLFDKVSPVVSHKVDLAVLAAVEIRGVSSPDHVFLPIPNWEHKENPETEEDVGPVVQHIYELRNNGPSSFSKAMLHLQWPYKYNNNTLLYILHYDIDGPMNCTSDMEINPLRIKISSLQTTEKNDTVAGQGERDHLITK

[5] = H2009 tumor bearing mice, 1 h p.i.
[6] = H2009 tumor bearing mice, 4 h p.i.
[7] = H2009 tumor bearing mice, 24 h p.i.

Chain of purified αvβ6 (P06756 31-992 limits assumed): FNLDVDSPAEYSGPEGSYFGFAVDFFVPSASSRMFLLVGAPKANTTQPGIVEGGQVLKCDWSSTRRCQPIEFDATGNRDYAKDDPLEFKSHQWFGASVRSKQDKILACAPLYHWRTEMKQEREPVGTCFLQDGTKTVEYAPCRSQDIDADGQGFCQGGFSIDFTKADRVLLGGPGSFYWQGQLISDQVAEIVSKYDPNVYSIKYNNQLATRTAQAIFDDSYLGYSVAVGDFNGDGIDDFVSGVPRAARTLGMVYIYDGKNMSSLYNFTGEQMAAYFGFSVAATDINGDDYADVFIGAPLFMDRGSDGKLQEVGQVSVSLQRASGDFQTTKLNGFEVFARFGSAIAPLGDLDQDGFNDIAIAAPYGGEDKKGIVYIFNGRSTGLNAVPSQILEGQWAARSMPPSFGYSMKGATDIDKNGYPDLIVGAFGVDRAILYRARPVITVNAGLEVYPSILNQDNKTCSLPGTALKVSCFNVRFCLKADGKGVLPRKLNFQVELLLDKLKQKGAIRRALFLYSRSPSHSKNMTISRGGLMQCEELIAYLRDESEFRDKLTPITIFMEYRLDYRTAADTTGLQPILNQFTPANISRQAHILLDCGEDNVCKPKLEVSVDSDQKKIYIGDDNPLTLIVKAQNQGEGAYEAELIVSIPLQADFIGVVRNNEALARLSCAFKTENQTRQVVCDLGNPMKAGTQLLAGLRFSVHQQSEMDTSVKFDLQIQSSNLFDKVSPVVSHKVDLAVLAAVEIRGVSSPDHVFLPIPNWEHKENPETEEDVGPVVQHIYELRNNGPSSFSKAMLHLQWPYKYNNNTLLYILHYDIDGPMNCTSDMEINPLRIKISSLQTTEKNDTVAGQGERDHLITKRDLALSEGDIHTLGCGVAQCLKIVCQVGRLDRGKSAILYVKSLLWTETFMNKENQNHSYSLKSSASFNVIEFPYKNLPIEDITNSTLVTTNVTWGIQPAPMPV
Chain of purified αvβ6 (P18564 22-707 limits assumed): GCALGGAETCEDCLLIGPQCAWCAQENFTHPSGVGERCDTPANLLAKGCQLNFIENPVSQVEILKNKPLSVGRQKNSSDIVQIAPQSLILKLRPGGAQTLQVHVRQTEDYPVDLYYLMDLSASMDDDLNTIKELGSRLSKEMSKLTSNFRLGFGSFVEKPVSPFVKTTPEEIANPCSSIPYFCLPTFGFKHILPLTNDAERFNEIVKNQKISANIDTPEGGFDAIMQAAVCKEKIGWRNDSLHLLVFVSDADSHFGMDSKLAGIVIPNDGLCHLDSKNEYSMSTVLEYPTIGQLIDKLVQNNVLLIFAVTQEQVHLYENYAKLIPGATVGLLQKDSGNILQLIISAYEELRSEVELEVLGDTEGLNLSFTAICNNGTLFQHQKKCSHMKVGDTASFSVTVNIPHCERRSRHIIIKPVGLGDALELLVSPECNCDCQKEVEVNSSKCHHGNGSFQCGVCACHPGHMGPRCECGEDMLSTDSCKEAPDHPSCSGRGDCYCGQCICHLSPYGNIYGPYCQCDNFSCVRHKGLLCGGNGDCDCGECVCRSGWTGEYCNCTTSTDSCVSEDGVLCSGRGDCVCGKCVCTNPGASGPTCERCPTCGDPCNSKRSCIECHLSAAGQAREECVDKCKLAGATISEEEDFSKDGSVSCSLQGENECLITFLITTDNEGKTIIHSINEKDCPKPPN

N=C(N)NCCC[C@@H]1NC(=O)[C@H](CCCCN)NC(=O)[C@@H](Cc2ccc(O)cc2)NC(=O)[C@H](CC(=O)O)NC(=O)CNC1=O [cRGDyK]
binding to αvβ6 (purified αvβ6): no detectable binding

CC(C)C[C@H](NC(=O)[C@H](CCC(N)=O)NC(=O)[C@H](CCCNC(=N)N)NC(=O)[C@H](CC(C)C)NC(=O)[C@@H](NC(=O)[C@H](C)NC(=O)[C@H](CC(C)C)NC(=O)[C@H](CC(=O)O)NC(=O)CNC(=O)[C@@H](N)CCCNC(=N)N)[C@@H](C)O)C(=O)NCCOCCOCCOCCOCCOCCOCCOCCOCCOCCOCCOCCOCCC(=O)N[C@@H](CSC1CC(=O)N(CCNC(=O)CCC(C(=O)O)N2CCCN3CCN(CCCN(C(CCC(=O)NCCN4C(=O)CC(SC[C@H](NC(=O)CCOCCOCCOCCOCCOCCOCCOCCOCCOCCOCCOCCOCCNC(=O)[C@H](CC(C)C)NC(=O)[C@H](CCC(N)=O)NC(=O)[C@H](CCCNC(=N)N)NC(=O)[C@H](CC(C)C)NC(=O)[C@@H](NC(=O)[C@H](C)NC(=O)[C@H](CC(C)C)NC(=O)[C@H](CC(=O)O)NC(=O)CNC(=O)[C@@H](N)CCCNC(=N)N)[C@@H](C)O)C(N)=O)C4=O)C(=O)O)CC3)CC2)C1=O)C(N)=O (stereo partly shown) [^64Cu-(M10)2, metal not drawn]
tissue uptake at 1 h ([1]; heart): 1.56 ± 0.15 %ID/g
tissue uptake at 4 h ([1]; heart): 0.71 ± 0.03 %ID/g
tissue uptake at 24 h ([1]; heart): 0.32 ± 0.03 %ID/g
tissue uptake at 1 h ([1]; kidney): 53.6 ± 8.68 %ID/g
tissue uptake at 4 h ([1]; kidney): 46.2 ± 10.4 %ID/g
tissue uptake at 24 h ([1]; kidney): 27.3 ± 7.3 %ID/g
tissue uptake at 1 h ([1]; liver): 2.13 ± 0.73 %ID/g
tissue uptake at 4 h ([1]; liver): 1.9 %ID/g
tissue uptake at 24 h ([1]; liver): 1.26 ± 0.25 %ID/g
tissue uptake at 1 h ([1]; lung): 1.66 ± 0.15 %ID/g
tissue uptake at 4 h ([1]; lung): 0.72 ± 0.02 %ID/g
tissue uptake at 24 h ([1]; lung): 0.4 ± 0.03 %ID/g
tissue uptake at 1 h ([1]; muscle): 0.87 ± 0.04 %ID/g
tissue uptake at 4 h ([1]; muscle): 0.3 ± 0.02 %ID/g
tissue uptake at 24 h ([1]; muscle): 0.25 ± 0.05 %ID/g
increase of kidney uptake as compared to 64Cu-M10 ([2]; H2009 tumor bearing mice, 1 h, 4 h, 24 h p.i.): ~6 fold
Tumor uptake [2, 5]: 1.6 ± 0.20 %ID/g
Tumor/Lung [2, 5]: 1.0 ± 0.25
Tumor uptake [2, 6]: 0.85 ± 0.19 %ID/g
Tumor/Lung [2, 6]: 1.2 ± 0.19
Tumor uptake [2, 7]: 0.79 ± 0.03 %ID/g
Tumor/Lung [2, 7]: 1.9 ± 0.04
tumor uptake increase as compared to 64Cu-M10 [2]: ~3 fold
tissue uptake at 1 h ([3]; heart): 1.7 %ID/g
tissue uptake at 4 h ([3]; heart): 1.25 ± 0.07 %ID/g
tissue uptake at 24 h ([3]; heart): 0.83 ± 0.17 %ID/g
tissue uptake at 1 h ([3]; kidney): 85.4 ± 17.5 %ID/g
tissue uptake at 4 h ([3]; kidney): 92.9 ± 11.3 %ID/g
tissue uptake at 24 h ([3]; kidney): 68.9 ± 8.13 %ID/g
tissue uptake at 1 h ([3]; liver): 5.45 ± 0.49 %ID/g
tissue uptake at 4 h ([3]; liver): 4.8 ± 0.14 %ID/g
tissue uptake at 24 h ([3]; liver): 3.25 ± 0.21 %ID/g
tissue uptake at 1 h ([3]; lung): 1.5 ± 0.14 %ID/g
tissue uptake at 4 h ([3]; lung): 1.15 ± 0.07 %ID/g
tissue uptake at 24 h ([3]; lung): 0.77 ± 0.01 %ID/g
tissue uptake at 1 h ([3]; muscle): 0.45 ± 0.18 %ID/g
tissue uptake at 4 h ([3]; muscle): 0.31 ± 0.06 %ID/g
tissue uptake at 24 h ([3]; muscle): 0.38 ± 0.08 %ID/g
Tumor uptake (H460 (αvβ6^-) xenografts; 1 h p.i.): 0.71 ± 0.05 %ID/g
Tumor uptake (H460 (αvβ6^-) xenografts; 4 h p.i.): 0.83 ± 0.04 %ID/g
Tumor uptake (H460 (αvβ6^-) xenografts; 24 h p.i.): 0.53 ± 0.17 %ID/g

CC(C)C[C@H](NC(=O)[C@H](CCC(N)=O)NC(=O)[C@H](CCCNC(=N)N)NC(=O)[C@H](CC(C)C)NC(=O)[C@@H](NC(=O)[C@H](C)NC(=O)[C@H](CC(C)C)NC(=O)[C@H](CC(=O)O)NC(=O)CNC(=O)[C@@H](N)CCCNC(=N)N)[C@@H](C)O)C(=O)NCCOCCOCCOCCOCCOCCOCCOCCOCCOCCOCCOCCOCCC(=O)N[C@@H](CSC1CC(=O)N(CCNC(=O)CCC(C(=O)O)N2CCCN3CCN(CCCN(CC(=O)O)CC3)CC2)C1=O)C(N)=O (stereo partly shown) [H2-M10]
IC50 [4]: 4.5 nM

CC(=O)N[C@@H](CCCNC(=N)N)C(=O)NCC(=O)N[C@@H](CC(=O)O)C(=O)N[C@@H](CC(C)C)C(=O)N[C@@H](C)C(=O)N[C@H](C(=O)N[C@@H](CC(C)C)C(=O)N[C@@H](CCCNC(=N)N)C(=O)N[C@@H](CCC(N)=O)C(=O)N[C@@H](CC(C)C)C(=O)NCCOCCOCCOCCOCCOCCOCCOCCOCCOCCOCCOCCOCCC(=O)N[C@@H](CSC1CC(=O)N(CCC(=O)NCCCC[C@H](NC(=O)CCN2C(=O)CC(SC[C@H](NC(=O)CCOCCOCCOCCOCCOCCOCCOCCOCCOCCOCCOCCOCCNC(=O)[C@H](CC(C)C)NC(=O)[C@H](CCC(N)=O)NC(=O)[C@H](CCCNC(=N)N)NC(=O)[C@H](CC(C)C)NC(=O)[C@@H](NC(=O)[C@H](C)NC(=O)[C@H](CC(C)C)NC(=O)[C@H](CC(=O)O)NC(=O)CNC(=O)[C@H](CCCNC(=N)N)NC(C)=O)[C@@H](C)O)C(N)=O)C2=O)C(=O)NCCC(=O)N[C@@H](CSC2CC(=O)N(CCNC(=O)CCC(C(=O)O)N3CCCN4CCN(CCCN(CC(=O)O)CC4)CC3)C2=O)C(N)=O)C1=O)C(N)=O)[C@@H](C)O (stereo partly shown) [^64Cu-AcD10, metal not drawn]
tissue uptake at 1 h ([1]; heart): 0.78 ± 0.05 %ID/g
tissue uptake at 24 h ([1]; heart): 0.21 ± 0.01 %ID/g
tissue uptake at 1 h ([1]; kidney): 18.8 ± 2.2 %ID/g
tissue uptake at 4 h ([1]; kidney): 19.1 ± 3.3 %ID/g
tissue uptake at 24 h ([1]; kidney): 5.4 ± 0.87 %ID/g
tissue uptake at 1 h ([1]; liver): 1.08 ± 0.11 %ID/g
tissue uptake at 4 h ([1]; liver): 0.72 ± 0.09 %ID/g
tissue uptake at 24 h ([1]; liver): 0.55 ± 0.1 %ID/g
tissue uptake at 1 h ([1]; lung): 1.33 ± 0.23 %ID/g
tissue uptake at 4 h ([1]; lung): 0.65 ± 0.03 %ID/g
tissue uptake at 24 h ([1]; lung): 0.34 ± 0.08 %ID/g
tissue uptake at 1 h ([1]; muscle): 0.83 ± 0.14 %ID/g
tissue uptake at 4 h ([1]; muscle): 0.42 ± 0.05 %ID/g
tissue uptake at 24 h ([1]; muscle): 0.32 ± 0.1 %ID/g
Tumor uptake [2, 5]: 1.46 ± 0.15 %ID/g
Tumor/Lung [2, 5]: 1.1 ± 0.27
Tumor uptake [2, 6]: 0.98 ± 0.01 %ID/g
Tumor/Lung [2, 6]: 1.51 ± 0.03
Tumor uptake [2, 7]: 0.68 ± 0.02 %ID/g
Tumor/Lung [2, 7]: 2.0 ± 0.08
tumor uptake increase as compared to 64Cu-M10 [2]: ~3 fold
tissue uptake at 1 h ([3]; heart): 0.82 ± 0.05 %ID/g
tissue uptake at 4 h ([3]; heart): 0.5 ± 0.04 %ID/g
tissue uptake at 24 h ([3]; heart): 0.26 %ID/g
tissue uptake at 1 h ([3]; kidney): 19.5 ± 0.36 %ID/g
tissue uptake at 4 h ([3]; kidney): 18.4 ± 0.92 %ID/g
tissue uptake at 24 h ([3]; kidney): 3.43 ± 1.8 %ID/g
tissue uptake at 1 h ([3]; liver): 1.13 ± 0.15 %ID/g
tissue uptake at 4 h ([3]; liver): 0.95 ± 0.06 %ID/g
tissue uptake at 24 h ([3]; liver): 0.71 ± 0.04 %ID/g
tissue uptake at 1 h ([3]; lung): 1.02 ± 0.06 %ID/g
tissue uptake at 4 h ([3]; lung): 0.65 ± 0.02 %ID/g
tissue uptake at 24 h ([3]; lung): 0.24 ± 0.1 %ID/g
tissue uptake at 1 h ([3]; muscle): 0.61 ± 0.12 %ID/g
tissue uptake at 4 h ([3]; muscle): 0.35 ± 0.05 %ID/g
tissue uptake at 24 h ([3]; muscle): 0.19 ± 0.13 %ID/g
Tumor uptake (H460 (αvβ6^-) xenografts; 1 h p.i.): 0.73 ± 0.13 %ID/g
Tumor uptake (H460 (αvβ6^-) xenografts; 4 h p.i.): 0.45 ± 0.11 %ID/g
Tumor uptake (H460 (αvβ6^-) xenografts; 24 h p.i.): 0.35 ± 0.05 %ID/g
